Measured values from paper PMC5004899, “Architecture of the caveolar coat complex” (Journal of Cell Science, 2016).

Biological target: the molecule itself
Test: cross-linking; DSP cross-linking in live HeLa cells; purified 80S-CCC; partial reduction of DSP crosslinks by titration of DTT; western blots

B1: cavin-1 (natural protein, human (endogenous in HeLa), UniProt Q6NZI2-1 1-390, looked up)
chain: MEDPTLYIVERPLPGYPDAEAPEPSSAGAQAAEEPSGAGSEELIKSDQVNGVLVLSLLDKIIGAVDQIQLTQAQLEERQAEMEGAVQSIQGELSKLGKAHATTSNTVSKLLEKVRKVSVNVKTVRGSLERQAGQIKKLEVNEAELLRRRNFKVMIYQDEVKLPAKLSISKSLKESEALPEKEGEELGEGERPEEDAAALELSSDEAVEVEEVIEESRAERIKRSGLRRVDDFKKAFSKEKMEKTKVRTRENLEKTRLKTKENLEKTRHTLEKRMNKLGTRLVPAERREKLKTSRDKLRKSFTPDHVVYARSKTAVYKVPPFTFHVKKIREGQVEVLKATEMVEVGADDDEGGAERGEAGDLRRGSSPDVHALLEITEESDAVLVDKSDSD
modifications: DSP-modified lysine residues (seven of 11 lysines in the HR1 domain, six of 17 in the HR2 domain; marked in Fig. 1D)
notes: human cavin-1 (PTRF), NP_036364.2; HR1 domain amino acids 49-163, HR2 domain amino acids 210-300; Detected with rabbit anti-PTRF (Abcam ab48824); also called PTRF; source: endogenous, HeLa lysate (cells DSP-cross-linked alive)
stoichiometry N: 3
